This data set deals with T1, GST-IκBβ (1-54).
T1 sequence: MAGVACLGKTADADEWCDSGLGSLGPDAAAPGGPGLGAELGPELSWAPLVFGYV

“IKK signalsome (stimulus-inducible IκB kinase complex) immunopurified from TNFα-stimulated HeLa cells”: the “phosphorylation of substrate (kinase assay)” value is reported as “the kinase phosphorylated GST-IκBβ (1-54), albeit with lower affinity”.

Source of the values: patent US7285654.
